Laboratory results from patent publication EP1246846B1 (ZymoGenetics, Inc., dated 2008).

Molecular target: T1, IL-20RA/IL-20RB heterodimeric receptor (human, UniProt Q9UHF4 30-553; Q6UXL0 30-311)
T1 construct: Both subunits were co-expressed on transfected COS, BHK or BaF3 cells, or were endogenous on HaCaT keratinocytes; also called IL-20RB-IL-20RA heterodimer; IL-20 receptor
T1 sequence 1: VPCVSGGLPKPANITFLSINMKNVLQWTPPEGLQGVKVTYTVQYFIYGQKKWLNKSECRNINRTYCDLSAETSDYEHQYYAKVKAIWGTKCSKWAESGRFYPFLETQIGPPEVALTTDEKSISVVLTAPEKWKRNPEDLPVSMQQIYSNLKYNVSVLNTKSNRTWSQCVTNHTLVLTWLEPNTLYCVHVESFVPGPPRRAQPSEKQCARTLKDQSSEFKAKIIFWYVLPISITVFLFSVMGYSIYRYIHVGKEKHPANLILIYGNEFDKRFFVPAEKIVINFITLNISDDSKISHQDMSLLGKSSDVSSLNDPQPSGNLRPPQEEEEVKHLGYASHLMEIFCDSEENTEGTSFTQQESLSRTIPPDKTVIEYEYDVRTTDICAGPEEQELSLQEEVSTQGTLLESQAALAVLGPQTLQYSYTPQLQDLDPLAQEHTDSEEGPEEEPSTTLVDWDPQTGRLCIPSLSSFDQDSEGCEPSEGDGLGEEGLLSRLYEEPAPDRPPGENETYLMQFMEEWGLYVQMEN
T1 sequence 2: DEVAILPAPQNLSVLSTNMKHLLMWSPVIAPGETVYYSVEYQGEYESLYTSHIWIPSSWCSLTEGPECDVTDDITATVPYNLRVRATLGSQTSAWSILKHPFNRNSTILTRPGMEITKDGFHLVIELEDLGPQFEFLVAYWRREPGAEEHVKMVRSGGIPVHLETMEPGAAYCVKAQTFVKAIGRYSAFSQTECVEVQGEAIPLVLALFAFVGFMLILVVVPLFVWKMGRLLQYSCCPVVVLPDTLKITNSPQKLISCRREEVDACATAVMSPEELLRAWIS
Assay: 125I-labeled IL-20 binding to BHK cells stably transfected with IL-20RA and IL-20RB

B1: IL-20 (Interleukin-20) (ligand, UniProt Q9NYY1 25-176, looked up)
chain: LKTLNLGSCVIATNLQEIRNGFSEIRGSVQAKDGNIDIRILRRTESLQDTKPANRCCLLRHLLRLYLDRVFKNYQTPDHYTLRKISSLANSFLTIKKDLRLCHAHMTCHCGEEAMKKYSQILSHFEKLEPQAAVVKALGELDILLQWMEETE
modifications: biotin-labeled in Example 3; 125I-labeled in Example 7; unlabeled in the functional assays
notes: also called Zcyto10; biotin-labeled IL-20 protein
Kd: ~1.5 nM
